Data from US6881719B2, “β-turn peptidomimetic cyclic compounds” (McGill University, priority 2000, dated 2005).
Positions of bridges follow the written chain, without caps; N, C: chain ends. Non-standard residues stand in square brackets, D forms with d. 5‑nitrobenzoyl = N-terminal 5-nitrobenzoyl group, introduced by coupling 2-fluoro-5-nitrobenzoyl chloride; hSer = N[C@@H](CCO)C(=O)O

What was measured:
[1] = biological target: human TrkA expressed on transfected cells (4-3.6 cells; NIH3T3-TrkA cells) (human) (UniProt P04629); test: cell-based or functional assay
[2] = biological target: TrkA on primary rat embryonic neurons (DRG and septal cultures) (rat, UniProt P35739 33-799); test: cell-based or functional assay
[3] = biological target: human TrkA expressed on transfected cells (4-3.6 cells; NIH3T3-TrkA cells) (human) (UniProt P04629); test: FACScan competition, 4-3.6 cells, mAb 5C3 1 nM, competitor D3 1 µM
[4] = biological target: human TrkA expressed on transfected cells (4-3.6 cells; NIH3T3-TrkA cells) (human) (UniProt P04629); test: FACScan competition, 4-3.6 cells, mAb 5C3 1 nM, competitor D3 5 µM
[5] = biological target: human TrkA expressed on transfected cells (4-3.6 cells; NIH3T3-TrkA cells) (human) (UniProt P04629); test: estimated from FACScan competition against mAb 5C3 on 4-3.6 cells
[6] = biological target: human TrkA expressed on transfected cells (4-3.6 cells; NIH3T3-TrkA cells) (human) (UniProt P04629); test: FACScan competition, 4-3.6 cells, mAb 5C3 1 nM, competitor D3 40 µM
[7] = biological target: human TrkA expressed on transfected cells (4-3.6 cells; NIH3T3-TrkA cells) (human) (UniProt P04629); test: FACScan competition, 4-3.6 cells, mAb 5C3 1 nM, competitor D3 0.20 µM
[8] = biological target: p75 NGF receptor on B104 rat neuroblastoma cells and 4-3.6 cells (rat) (UniProt P07174); test: FACScan competition, 4-3.6 cells, mAb MC192 1 nM, competitor D3 40 µM
[9] = biological target: recombinant baculovirus TrkA-extracellular domain protein (TrkA-ECD) (UniProt P04629); test: calculated from competition ELISA against mAb 5C3 on immobilized TrkA-ECD
[10] = biological target: recombinant baculovirus TrkA-extracellular domain protein (TrkA-ECD) (UniProt P04629); test: competition ELISA, mAb 5C3 2 nM on immobilized TrkA-ECD, competitor D3 1 µM
[11] = biological target: recombinant baculovirus TrkA-extracellular domain protein (TrkA-ECD) (UniProt P04629); test: competition ELISA, mAb 5C3 2 nM on immobilized TrkA-ECD, competitor D3 5 µM
[12] = biological target: recombinant baculovirus TrkA-extracellular domain protein (TrkA-ECD) (UniProt P04629); test: competition ELISA, mAb 5C3 2 nM on immobilized TrkA-ECD, competitor D3 20 µM
[13] = biological target: recombinant baculovirus TrkA-extracellular domain protein (TrkA-ECD) (UniProt P04629); test: competition ELISA, mAb 5C3 2 nM on immobilized TrkA-ECD, competitor D3 40 µM
[14] = biological target: recombinant baculovirus TrkA-extracellular domain protein (TrkA-ECD) (UniProt P04629); test: competition ELISA, mAb 5C3 2 nM on immobilized TrkA-ECD, competitor D3 0.2 µM
[15] = biological target: recombinant baculovirus TrkA-extracellular domain protein (TrkA-ECD) (UniProt P04629); test: competition ELISA, mAb 5C3 2 nM on immobilized TrkA-ECD, competitor D3 0.05 µM
[16] = biological target: p75 NGF receptor on B104 rat neuroblastoma cells and 4-3.6 cells (rat) (UniProt P07174); test: FACScan, B104 cells (p75+ TrkA-), D3-biotin 20 µM with 10-fold molar excess of D3, avidin-FITC
[17] = biological target: human TrkA expressed on transfected cells (4-3.6 cells; NIH3T3-TrkA cells) (human) (UniProt P04629); test: FACScan, 4-3.6 cells (p75+ TrkA+), D3-biotin 20 µM with 10-fold molar excess of D3, avidin-FITC
[18] = biological target: human TrkA expressed on transfected cells (4-3.6 cells; NIH3T3-TrkA cells) (human) (UniProt P04629); test: cell-based or functional assay; remark: listed apart in the source
[19] = biological target: human TrkC expressed on transfected NIH3T3 fibroblasts (human) (UniProt Q16288); test: cell-based or functional assay
Sequence of human TrkC expressed on transfected NIH3T3 fibroblasts (human) (Q16288 32-839): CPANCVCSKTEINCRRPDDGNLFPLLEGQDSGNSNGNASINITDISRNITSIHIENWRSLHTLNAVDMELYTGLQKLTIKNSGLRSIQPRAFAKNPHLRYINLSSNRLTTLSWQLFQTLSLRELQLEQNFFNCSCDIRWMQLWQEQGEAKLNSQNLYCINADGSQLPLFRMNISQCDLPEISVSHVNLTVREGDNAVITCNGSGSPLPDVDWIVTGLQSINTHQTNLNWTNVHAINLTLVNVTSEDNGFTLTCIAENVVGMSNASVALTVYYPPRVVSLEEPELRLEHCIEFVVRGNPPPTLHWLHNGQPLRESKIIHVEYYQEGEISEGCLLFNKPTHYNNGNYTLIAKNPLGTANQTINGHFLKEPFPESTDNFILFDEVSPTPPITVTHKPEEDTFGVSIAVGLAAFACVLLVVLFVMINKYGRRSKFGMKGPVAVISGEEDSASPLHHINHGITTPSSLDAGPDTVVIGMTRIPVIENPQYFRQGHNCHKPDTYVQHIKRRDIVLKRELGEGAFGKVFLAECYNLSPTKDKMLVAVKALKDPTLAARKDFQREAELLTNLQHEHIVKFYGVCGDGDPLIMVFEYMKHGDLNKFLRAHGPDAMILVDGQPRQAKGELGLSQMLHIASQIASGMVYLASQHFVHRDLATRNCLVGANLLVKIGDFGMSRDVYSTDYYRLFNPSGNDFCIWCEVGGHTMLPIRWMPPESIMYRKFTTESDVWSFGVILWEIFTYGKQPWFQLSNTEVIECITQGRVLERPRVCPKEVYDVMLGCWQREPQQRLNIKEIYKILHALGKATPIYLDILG

Sequence of recombinant baculovirus TrkA-extracellular domain protein (TrkA-ECD) (P04629 33-423 limits assumed): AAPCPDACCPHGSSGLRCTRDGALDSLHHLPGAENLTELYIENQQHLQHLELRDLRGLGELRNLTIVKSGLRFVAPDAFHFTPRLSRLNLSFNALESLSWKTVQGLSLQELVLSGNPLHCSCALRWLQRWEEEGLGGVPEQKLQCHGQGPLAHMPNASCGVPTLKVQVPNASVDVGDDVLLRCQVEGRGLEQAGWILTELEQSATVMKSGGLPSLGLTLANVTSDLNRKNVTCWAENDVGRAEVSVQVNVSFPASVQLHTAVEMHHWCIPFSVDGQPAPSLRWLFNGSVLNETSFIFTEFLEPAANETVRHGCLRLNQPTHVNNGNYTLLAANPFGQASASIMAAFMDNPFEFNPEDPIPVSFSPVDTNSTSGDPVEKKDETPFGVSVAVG
Sequence of TrkA on primary rat embryonic neurons (DRG and septal cultures) (P35739 33-799): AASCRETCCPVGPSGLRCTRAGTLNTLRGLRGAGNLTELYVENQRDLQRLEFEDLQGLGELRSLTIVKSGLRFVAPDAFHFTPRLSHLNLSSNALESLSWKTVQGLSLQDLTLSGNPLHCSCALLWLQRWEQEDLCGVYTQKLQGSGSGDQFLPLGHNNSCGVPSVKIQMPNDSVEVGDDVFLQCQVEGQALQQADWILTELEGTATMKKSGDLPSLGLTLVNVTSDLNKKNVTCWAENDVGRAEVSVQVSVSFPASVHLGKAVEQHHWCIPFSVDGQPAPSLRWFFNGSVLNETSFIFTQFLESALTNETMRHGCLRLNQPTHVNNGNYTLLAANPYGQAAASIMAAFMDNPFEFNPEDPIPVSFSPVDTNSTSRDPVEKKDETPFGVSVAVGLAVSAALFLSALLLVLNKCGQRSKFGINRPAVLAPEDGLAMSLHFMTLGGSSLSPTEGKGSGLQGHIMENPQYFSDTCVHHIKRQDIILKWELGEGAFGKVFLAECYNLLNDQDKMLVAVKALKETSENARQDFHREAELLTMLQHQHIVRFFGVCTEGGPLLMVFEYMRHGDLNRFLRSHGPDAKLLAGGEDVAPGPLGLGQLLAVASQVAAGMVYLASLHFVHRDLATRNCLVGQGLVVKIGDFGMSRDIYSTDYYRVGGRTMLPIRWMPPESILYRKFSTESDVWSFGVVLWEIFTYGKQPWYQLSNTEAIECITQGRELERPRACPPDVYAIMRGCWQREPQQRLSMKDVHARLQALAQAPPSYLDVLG
Sequence of human TrkA expressed on transfected cells (4-3.6 cells; NIH3T3-TrkA cells) (human) (P04629 33-796): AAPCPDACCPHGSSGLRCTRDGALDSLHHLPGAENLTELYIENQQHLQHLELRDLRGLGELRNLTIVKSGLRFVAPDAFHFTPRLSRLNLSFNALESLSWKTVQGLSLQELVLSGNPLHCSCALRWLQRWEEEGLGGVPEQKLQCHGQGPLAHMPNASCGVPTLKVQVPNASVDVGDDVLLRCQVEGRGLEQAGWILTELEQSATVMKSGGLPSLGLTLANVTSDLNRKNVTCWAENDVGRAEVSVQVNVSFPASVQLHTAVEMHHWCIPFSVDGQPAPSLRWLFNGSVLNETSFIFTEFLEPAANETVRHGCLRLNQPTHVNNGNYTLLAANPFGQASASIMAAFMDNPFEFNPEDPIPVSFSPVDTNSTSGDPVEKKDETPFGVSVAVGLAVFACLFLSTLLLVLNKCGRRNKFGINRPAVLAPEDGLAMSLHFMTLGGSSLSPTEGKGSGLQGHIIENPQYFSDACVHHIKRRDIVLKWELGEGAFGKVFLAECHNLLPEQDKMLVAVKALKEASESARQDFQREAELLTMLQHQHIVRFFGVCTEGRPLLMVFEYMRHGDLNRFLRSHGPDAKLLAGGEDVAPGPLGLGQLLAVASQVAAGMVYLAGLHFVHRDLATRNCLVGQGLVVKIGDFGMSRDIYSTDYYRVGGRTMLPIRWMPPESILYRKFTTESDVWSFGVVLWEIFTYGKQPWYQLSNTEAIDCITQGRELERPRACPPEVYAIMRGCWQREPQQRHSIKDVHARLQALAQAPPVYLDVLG
Sequence of p75 NGF receptor on B104 rat neuroblastoma cells and 4-3.6 cells (rat) (P07174 30-425): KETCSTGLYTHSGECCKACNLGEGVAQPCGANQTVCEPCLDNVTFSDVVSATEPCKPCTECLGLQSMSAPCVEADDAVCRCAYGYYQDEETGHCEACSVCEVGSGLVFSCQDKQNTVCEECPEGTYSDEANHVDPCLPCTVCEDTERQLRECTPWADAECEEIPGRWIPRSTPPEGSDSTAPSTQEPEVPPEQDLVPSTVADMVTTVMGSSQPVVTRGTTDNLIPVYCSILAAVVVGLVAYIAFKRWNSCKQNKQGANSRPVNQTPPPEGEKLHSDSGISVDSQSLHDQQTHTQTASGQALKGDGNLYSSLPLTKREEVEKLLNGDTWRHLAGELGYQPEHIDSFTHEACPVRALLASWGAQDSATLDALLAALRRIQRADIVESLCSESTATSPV

{5‑nitrobenzoyl}-EK[hSer]G-OH (bridge N-3) [D3 (EKHse-G-OH), β-turn peptidomimetic cyclic compound]
% Protection (MTT, 4-3.6 cells), 10 µM D3 [1]: 8% | % Protection (MTT, 4-3.6 cells), 10 µM D3 + 10 pM NGF [1]: 55% | % Protection (MTT, NIH-TrkA), 10 µM D3 [1]: 8% | % Protection (MTT, NIH-TrkA), 10 µM D3 + 10 pM NGF [1]: 51% | Optical Density (MTT survival, 4-3.6 cells), 10 µM D3 [1]: 95 OD | Optical Density (MTT survival, 4-3.6 cells), 10 µM D3 + 10 pM NGF [1]: 255 OD | intensity of the Mr 300 kDa band (putative TrkA·TrkA dimers) after cross-linking, standardized to 1 nM NGF (100%), 10 pM NGF + 10 µM D3 [1]: 77% | intensity of the Mr 300 kDa band (putative TrkA·TrkA dimers) after cross-linking, standardized to 1 nM NGF (100%), 10 µM D3 alone [1]: 21% | ChAT Fold Increase, 0.2 µM D3 [2]: 1.23 fold | ChAT Fold Increase, 0.2 µM D3 + 10 pM NGF [2]: 2 fold | ChAT Fold Increase, 2 µM D3 [2]: 1.47 fold | ChAT Fold Increase, 2 µM D3 + 10 pM NGF [2]: 2.53 fold | ChAT Fold Increase, 20 µM D3 [2]: 1.56 fold | ChAT Fold Increase, 20 µM D3 + 10 pM NGF [2]: 2.63 fold | % Maximal binding of mAb 5C3 [3]: 80% | % Maximal binding of mAb 5C3 [4]: 53% | Kd [5]: 2000 nM | % Maximal binding of mAb 5C3 [6]: 33% | % Maximal binding of mAb 5C3 [7]: 95% | % Maximal binding of mAb MC192 [8]: 101% | Kd [9]: 2000 nM | % Binding of mAb 5C3 [10]: 64% | % Binding of mAb 5C3 [11]: 43% | % Binding of mAb 5C3 [12]: 38% | % Binding of mAb 5C3 [13]: 31% | % Binding of mAb 5C3 [14]: 89% | % Binding of mAb 5C3 [15]: 100% | MCF of D3-biotin in the presence of competitor D3 [16]: 11 MCF | MCF of D3-biotin in the presence of competitor D3 [17]: 17 MCF

B1: Neurotrophin-3 (NT-3) (ligand, UniProt P20783 139-257, looked up, species assumed)
Neurotrophin-3: YAEHKSHRGEYSVCDSESLWVTDKSSAIDIRGHQVTVLGEIKTGNSPVKQYFYETRCKEARPVKNGCRGIDDKHWNSQCKTSQTYVRALTSENNKLVGWRWIRIDTSCVCALSRKIGRT
% Protection (MTT, NIH-TrkA), 10 pM NT-3 [18]: 3% | % Protection (MTT, NIH-TrkC), 10 pM NT-3 [19]: 29%
